In patent publication US20230233676A1, “Use of Approved Anti-CD38 Antibody Drug Product in Combination with Pomalidomide and Dexamethasone to Treat Multiple Myeloma” (Janssen Biotech, Inc., priority 2022, published 2023):
Where two headings read alike, the source gives them in different places. Marks after values point to notes of the source that are not given here.

Tests used:
[1] = molecular target: T1, CD38 on red blood cells (RBCs) (Homo sapiens, UniProt P28907); test: Interference with serological testing (Indirect Antiglobulin Test)
T1 construct: endogenous in cells; host or cells: red blood cells (patient / reagent RBCs)
Text: Since the Kell blood group system is also sensitive to DTT treatment, supply K-negative units after ruling out or identifying alloantibodies using DTT-treated RBCs.

[2] = human, in vivo
[3] = Daratumumab pharmacokinetics in patients with light chain (AL) amyloidosis; type: in vivo, human
[4] = tested on: patients with relapsed or refractory multiple myeloma; test: COLUMBA randomized non-inferiority study, DARZALEX FASPRO monotherapy versus intravenous daratumumab;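 further: randomized arms stratified by body weight, myeloma type and count of earlier treatment lines, enrolled patients having a median of 4 previous lines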
Text: The major efficacy outcome measures were ORR by the IMWG response criteria and maximum Ctrough at pre-dose Cycle 3 Day 1 [see Clinical Pharmacology (12.3)]. Randomization was stratified by body weight, myeloma type, and number of prior lines of therapy.
Patients had received a median of 4 prior lines of therapy. […] Forty-nine percent of patients were refractory both a PI and an immunomodulatory agent. Eighty-two percent of patients were refractory to their last line of prior systemic therapy.

[5] = tested on: pregnant mice and offspring; test: Hyaluronidase developmental toxicity in mice; type: in vivo
Text: There were no effects on pre- and post-natal development through sexual maturity in offspring of mice treated daily from implantation through lactation with 990,000 U/kg hyaluronidase subcutaneously, which is 134 times higher than the human doses.

monkeys = test: Hyaluronidase given subcutaneously to monkeys (systemic exposure, reproductive tissues); type: in vivo
Protocol: No carcinogenicity, genotoxicity, or fertility studies were conducted for recombinant human hyaluronidase. […] As hyaluronidase is a recombinant form of the endogenous human hyaluronidase, no carcinogenicity, mutagenesis, or effects on fertility are expected.

[6] = All Grades, worsening from baseline
[7] = monkeys given 22,000 U/kg/week subcutaneously for 39 weeks

With “Daratumumab: immunoglobulin G1 kappa (IgG1κ) human monoclonal antibody that binds to the CD38 antigen; heavy chain SEQ ID NO: 12, light chain SEQ ID NO: 13” the “Indirect Antiglobulin Test (Indirect Coombs test)” value [1] was “positive”, the “persistence of positive indirect antiglobulin test after the last administration” value [1] was “up to 6 months” and the “estimated mean elimination half-life associated with linear clearance” value [2] was 20 days. For the same molecule, the “estimated mean linear clearance” value [2] was 119 mL/day, the “estimated mean volume of distribution for the central compartment” value [2] was 5.2 L and the “estimated mean volume of distribution, peripheral compartment” value [2] was 3.8 L. For the same molecule, the “pharmacokinetics in geriatric patients compared to younger adult patients” value [2] was “No clinically meaningful differences”, the “estimated mean volume of distribution” value ([3]; CV 28%) was 10.8 L and the “estimated mean linear clearance” value ([3]; CV 42%) was 210 mL/day. For the same molecule, the “estimated mean elimination half-life associated with linear clearance” value ([3]; CV 74%) was 28 days.

In the case of “Intravenous Daratumumab: daratumumab 16 mg/kg administered intravenously”, the “Observed mean ± SD max Ctrough after 8th dose” value [2] is reported as 522 ± 226^a,b μg/mL, the Back pain ([4]; All Grades) is reported as 12% and the Chills ([4]; All Grades) is reported as 12%. For the same molecule, the Cough ([4]; All Grades) was 14%, the Diarrhea ([4]; All Grades) was 11% and the Dyspnea ([4]; All Grades) was 11%. For the same molecule, the Fatigue ([4]; All Grades) was 16%, the Infusion reactions ([4]; All Grades) was 34% and the Nausea ([4]; All Grades) was 11%. The Pneumonia ([4]; All Grades) was 10%, the Pyrexia ([4]; All Grades) was 13% and the Decreased hemoglobin [4, 6] was 39%. For the same molecule, the Decreased leukocytes [4, 6] was 57%, the Decreased lymphocytes [4, 6] was 56% and the Decreased neutrophils [4, 6] was 43%. For the same molecule, the Decreased platelets [4, 6] was 45%, the Back pain ([4]; Grade ≥3) was 3^# % and the Chills ([4]; Grade ≥3) was 1^# %. For the same molecule, the Cough ([4]; Grade ≥3) was 0%, the Diarrhea ([4]; Grade ≥3) was 0.4^# % and the Dyspnea ([4]; Grade ≥3) was 1^# %. The Fatigue ([4]; Grade ≥3) was 2^# %, the Infusion reactions ([4]; Grade ≥3) was 5^# % and the Nausea ([4]; Grade ≥3) was 0.4^# %. For the same molecule, the Pneumonia ([4]; Grade ≥3) was 6^@ %, the Pyrexia ([4]; Grade ≥3) was 1^# % and the Decreased hemoglobin ([4]; Grades 3-4) was 16%. The Decreased leukocytes ([4]; Grades 3-4) was 14%, the Decreased lymphocytes ([4]; Grades 3-4) was 36% and the Decreased neutrophils ([4]; Grades 3-4) was 11%. The Decreased platelets ([4]; Grades 3-4) was 14%, the CR or better ([4]; in vivo) was “(2.7%)” and the Median progression-free survival ([4]; in vivo) was 6.1 months. For the same molecule, the “Partial response (PR)” value ([4]; in vivo) was “(20%)”, the “Very good partial response (VGPR)” value ([4]; in vivo) was “(14%)” and the “Overall response (sCR + CR + VGPR + PR)” value ([4]; intent-to-treat population) was “(37%)”.

B1: hyaluronidase: recombinant hyaluronidase rHuPH20 having the amino acid sequence of SEQ ID NO: 22 (protein, listed as Homo sapiens)
chain: LNFRAPPVIPNVPFLWAWNAPSEFCLGKFDEPLDMSLFSFIGSPRINATGQGVTIFYVDRLGYYPYIDSITGVTVNGGIPQKISLQDHLDKAKKDITFYMPVDNLGMAVIDWEEWRPTWARNWKPKDVYKNRSIELVQQQNVQLSLTEATEKAKQEFEKAGKDFLVETIKLGKLLRPNHLWGYYLFPDCYNHHYKKPGYNGSCFNVEIKRNDDLSWLWNESTALYPSIYLNTQQSPVAATLYVRNRVREAIRVSKIPDAKSPLPVFAYTRIVFTDQVLKFLSQDELVYTFGETVALGASGIVIWGTLSIMRSMKSCLLLDNYMETILNPYIINVTLAAKMCSQVLCQEQGVCIRKNWNSSDYLHLNPDNFAIQLEKGGKFTVRGKPTLEDLEQFSEKFYCSCYSTLSCKEKADVKDTDAVDVCIADGVCIDAFLKPPMETEEPQIFY
In the case of B1, the “effects on post-natal development through sexual maturity in offspring” value ([5]; mice treated daily during lactation with 990,000 U/kg subcutaneously) is reported as “no effects”, the “effects on pre- and post-natal development through sexual maturity in offspring” value ([5]; mice treated daily from implantation through lactation with 990,000 U/kg subcutaneously) is reported as “no effects” and the “effects on embryo-fetal development” value ([5]; pregnant mice given 330,000 U/kg subcutaneously daily during organogenesis) is reported as “no effects”. For the same molecule, the “systemic exposure of hyaluronidase” value (monkeys; monkeys given 22,000 U/kg subcutaneously) was “No systemic exposure”, the “effects on reproductive tissues and function” value (monkeys; [7]) was “no effects” and the “systemic exposure of hyaluronidase” value (monkeys; [7]) was “no systemic exposure”.
